In patent US10428140B2, “Anti-EphA4 antibody” (EISAI R&D MANAGEMENT CO., LTD., priority 2015, dated 2019):

Assays:
human EphB3 = target: T1, human EphB3 (Homo sapiens, UniProt P54753); assay: Selectivity ELISA of humanized antibodies for human Eph receptor; assay type: binding; conditions: coated protein 1 nM
T1 construct: a protein of the extracellular region of each human Eph receptor fused with the SEAP protein and the His tag; made in house; host or cells: Expi293F cells
T1 sequence (P54753 34-559 limits assumed): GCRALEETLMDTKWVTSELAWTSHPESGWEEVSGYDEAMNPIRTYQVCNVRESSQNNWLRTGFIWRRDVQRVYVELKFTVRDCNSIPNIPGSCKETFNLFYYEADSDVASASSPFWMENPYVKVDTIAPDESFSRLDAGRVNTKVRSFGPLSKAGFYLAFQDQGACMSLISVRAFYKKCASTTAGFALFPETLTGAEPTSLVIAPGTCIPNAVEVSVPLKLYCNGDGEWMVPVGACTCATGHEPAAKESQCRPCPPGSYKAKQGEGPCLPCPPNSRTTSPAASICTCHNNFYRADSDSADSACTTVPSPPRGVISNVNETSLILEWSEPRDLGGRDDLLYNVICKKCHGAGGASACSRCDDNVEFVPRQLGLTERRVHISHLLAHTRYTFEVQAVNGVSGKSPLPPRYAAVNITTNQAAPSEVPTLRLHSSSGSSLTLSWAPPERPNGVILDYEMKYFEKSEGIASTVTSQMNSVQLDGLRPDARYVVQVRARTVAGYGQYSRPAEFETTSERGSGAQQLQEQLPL
Summary of the method: (§1)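 Capture ELISA: anti-6-His coat, 1% BlockAce block, Eph ECD-SEAP-His (1 nM final, Expi293F supernatant) 1 h RT, humanized Ab 1 h RT, HRP anti-IgG 1 h RT, TMB, H2SO4 stop, A450.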

human EphB6 = target: T2, human EphB6 (Homo sapiens, UniProt O15197); assay: as above; assay type: binding; conditions: coated protein 1 nM
T2 construct: a protein of the extracellular region of each human Eph receptor fused with the SEAP protein and the His tag; made in house; host or cells: Expi293F cells
T2 sequence (O15197 32-594 limits assumed): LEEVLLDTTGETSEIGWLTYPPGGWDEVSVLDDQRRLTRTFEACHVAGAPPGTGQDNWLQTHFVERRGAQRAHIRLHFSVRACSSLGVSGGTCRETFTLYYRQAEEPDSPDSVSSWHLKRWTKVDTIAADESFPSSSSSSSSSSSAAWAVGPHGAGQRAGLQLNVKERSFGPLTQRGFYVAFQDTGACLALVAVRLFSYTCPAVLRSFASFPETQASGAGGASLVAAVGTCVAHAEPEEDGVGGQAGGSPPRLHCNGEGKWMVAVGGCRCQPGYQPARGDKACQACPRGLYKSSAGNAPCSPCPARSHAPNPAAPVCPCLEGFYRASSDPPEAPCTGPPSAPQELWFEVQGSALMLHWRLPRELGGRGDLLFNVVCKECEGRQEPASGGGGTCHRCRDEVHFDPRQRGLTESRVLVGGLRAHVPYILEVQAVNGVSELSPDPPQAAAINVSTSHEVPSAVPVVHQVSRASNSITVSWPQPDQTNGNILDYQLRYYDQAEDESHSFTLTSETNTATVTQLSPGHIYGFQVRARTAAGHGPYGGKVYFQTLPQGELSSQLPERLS
Summary of the method: as §1

B1: 94 (antibody, V domains shown)
VL: EIVMTQSPATLSVSPGERATLSCRASENIYRNLAWYQQKPGQSPRLLIYAATNLADGIPARFSGSGSGTEYTLTISSLQSEDFAVYYCQHFWGTPWTFGQGTKVEIK
VH: QVQLVQSGSELKKPGASVKVSCKASGYTFTDYSMHWVRQAPGQGLKWMGWINTETGEPTYAQGFTGRFVFSLDTSVSTAYLQISSLKAEDTAVYYCARIPLYYYGSRYWYFDVWGQGTTVTVSS
modifications: constant regions without entry; synthetic humanized antibody light chain variable region sequence; synthetic humanized antibody heavy chain variable region sequence
- hEphB3-SEAP-: absorbance at 450 nm, percentage with respect to hEphA4-SEAP-His as 100% (human EphB3): 6.7%
- hEphB6-SEAP-: absorbance at 450 nm, percentage with respect to hEphA4-SEAP-His as 100% (human EphB6): 6.4%

B2: 141 (antibody, V domains shown)
VH: QVQLVQSGSELKKPGASVKVSCKASGYTFTDYSMHWVRQAPGQGLEWMGWINTETGEPTYADDFKGRFVFSLDTSVSTAYLQISSLKAEDTAVYYCARIPLYYYGSRYWYFDVWGQGTTVTVSS
VL: DIQMTQSPSSLSASVGDRVTITCRASENIYRNLAWYQQKPGKAPKLLVYAATNLADGVPSRFSGSGSGTDYTLTISSLQPEDFATYYCQHFWGTPWTFGQGTKVEIK
modifications: synthetic humanized antibody heavy chain variable region sequence; synthetic humanized antibody light chain variable region sequence
- hEphB3-SEAP-: absorbance at 450 nm, percentage with respect to hEphA4-SEAP-His as 100% (human EphB3): 5.2%
- hEphB6-SEAP-: absorbance at 450 nm, percentage with respect to hEphA4-SEAP-His as 100% (human EphB6): 5.4%

B3: 140 (antibody, V domains shown)
VH: QVQLVQSGSELKKPGASVKVSCKASGYTFTDYSMHWVRQAPGQGLKWMGWINTETGEPTYAQGFTGRFVFSLDTSVSTAYLQISSLKAEDTAVYYCARIPLYYYGSRYWYFDVWGQGTTVTVSS
VL: DIQMTQSPSSLSASVGDRVTITCRASENIYRNLAWYQQKPGKAPKLLVYAATNLADGVPSRFSGSGSGTDYTLTISSLQPEDFATYYCQHFWGTPWTFGQGTKVEIK
modifications: synthetic humanized antibody heavy chain variable region sequence; synthetic humanized antibody light chain variable region sequence
- hEphB3-SEAP-: absorbance at 450 nm, percentage with respect to hEphA4-SEAP-His as 100% (human EphB3): 5.4%
- hEphB6-SEAP-: absorbance at 450 nm, percentage with respect to hEphA4-SEAP-His as 100% (human EphB6): 5.2%

B4: 71 (antibody, V domains shown)
VH: QIQLVQSGSELKKPGASVKVSCKASGYTFTDYSMHWVRQAPGQGLKWMGWINTETGEPTYAQGFTGRFVFSLDTSVSTAYLQISSLKAEDTAVYYCARIPLYYYGSRYWYFDVWGQGTTVTVSS
VL: EIVMTQSPATLSVSPGERATLSCRASENIYRNLAWYQQKPGQSPRLLIYAATNLADGIPARFSGSGSGTEYTLTISSLQSEDFAVYYCQHFWGTPWTFGQGTKVEIK
modifications: synthetic humanized antibody heavy chain variable region sequence; synthetic humanized antibody light chain variable region sequence
- hEphB3-SEAP-: absorbance at 450 nm, percentage with respect to hEphA4-SEAP-His as 100% (human EphB3): 5.5%
- hEphB6-SEAP-: absorbance at 450 nm, percentage with respect to hEphA4-SEAP-His as 100% (human EphB6): 5.3%

B5: 95 (antibody, V domains shown)
VL: EIVMTQSPATLSVSPGERATLSCRASENIYRNLAWYQQKPGQSPRLLIYAATNLADGIPARFSGSGSGTEYTLTISSLQSEDFAVYYCQHFWGTPWTFGQGTKVEIK
VH: QVQLVQSGSELKKPGASVKVSCKASGYTFTDYSMHWVRQAPGQGLEWMGWINTETGEPTYADDFKGRFVFSLDTSVSTAYLQISSLKAEDTAVYYCARIPLYYYGSRYWYFDVWGQGTTVTVSS
modifications: constant regions without entry; synthetic humanized antibody light chain variable region sequence; synthetic humanized antibody heavy chain variable region sequence
- hEphB3-SEAP-: absorbance at 450 nm, percentage with respect to hEphA4-SEAP-His as 100% (human EphB3): 4.6%
- hEphB6-SEAP-: absorbance at 450 nm, percentage with respect to hEphA4-SEAP-His as 100% (human EphB6): 4.7%

B6: 96 (antibody, V domains shown)
VL: EIVMTQSPATLSVSPGERATLSCRASENIYRNLAWYQQKPGQSPRLLIYAATNLADGIPARFSGSGSGTEYTLTISSLQSEDFAVYYCQHFWGTPWTFGQGTKVEIK
VH: QVQLVQSGSELKKPGASVKVSCKASGYTFTDYSMHWVRQAPGQGLKWMGWINTETGEPTYADDFKGRFVFSLDTSVSTAYLQISSLKAEDTAVYYCARIPLYYYGSRYWYFDVWGQGTTVTVSS
modifications: constant regions without entry; synthetic humanized antibody light chain variable region sequence; synthetic humanized antibody heavy chain variable region sequence
- hEphB3-SEAP-: absorbance at 450 nm, percentage with respect to hEphA4-SEAP-His as 100% (human EphB3): 5.6%
- hEphB6-SEAP-: absorbance at 450 nm, percentage with respect to hEphA4-SEAP-His as 100% (human EphB6): 5.5%

B7: 138 (antibody, V domains shown)
VH: QIQLVQSGSELKKPGASVKVSCKASGYTFTDYSMHWVRQAPGQGLKWMGWINTETGEPTYAQGFTGRFVFSLDTSVSTAYLQISSLKAEDTAVYYCARIPLYYYGSRYWYFDVWGQGTTVTVSS
VL: DIQMTQSPSSLSASVGDRVTITCRASENIYRNLAWYQQKPGKAPKLLVYAATNLADGVPSRFSGSGSGTDYTLTISSLQPEDFATYYCQHFWGTPWTFGQGTKVEIK
modifications: synthetic humanized antibody heavy chain variable region sequence; synthetic humanized antibody light chain variable region sequence
- hEphB3-SEAP-: absorbance at 450 nm, percentage with respect to hEphA4-SEAP-His as 100% (human EphB3): 5.1%
- hEphB6-SEAP-: absorbance at 450 nm, percentage with respect to hEphA4-SEAP-His as 100% (human EphB6): 5.0%

B8: 139 (antibody)
VH: QVQLVQSGSELKKPGASVKVSCKASGYTFTDYSMHWVRQAPGQGLEWMGWINTETGEPTYAQGFTGRFVFSLDTSVSTAYLQISSLKAEDTAVYYCARIPLYYYGSRYWYFDVWGQGTTVTVSS
VL: DIQMTQSPSSLSASVGDRVTITCRASENIYRNLAWYQQKPGKAPKLLVYAATNLADGVPSRFSGSGSGTDYTLTISSLQPEDFATYYCQHFWGTPWTFGQGTKVEIK
chain: ASTKGPSVFPLAPSSRSTSESTAALGCLVKDYFPEPVTVSWNSGALTSGVHTFPAVLQSSGLYSLSSVVTVPSSNFGTQTYTCNVDHKPSNTKVDKTVERKSCVECPPCPAPPAAAPSVFLFPPKPKDTLMISRTPEVTCVVVDVSHEDPEVQFNWYVDGVEVHNAKTKPREEQFNSTFRVVSVLTVVHQDWLNGKEYKCKVSNKGLPAPIEKTISKTKGQPREPQVYTLPPSREEMTKNQVSLTCLVKGFYPSDIAVEWESNGQPENNYKTTPPMLDSDGSFFLYSKLTVDKSRWQQGNVFSCSVMHEALHNHYTQKSLSLSPG
modifications: synthetic humanized antibody heavy chain variable region sequence; synthetic humanized antibody light chain variable region sequence; synthetic antibody constant region sequence
- hEphB3-SEAP-: absorbance at 450 nm, percentage with respect to hEphA4-SEAP-His as 100% (human EphB3): 5.6%
- hEphB6-SEAP-: absorbance at 450 nm, percentage with respect to hEphA4-SEAP-His as 100% (human EphB6): 5.9%

B9: 73 (antibody, V domains shown)
VH: QIQLVQSGSELKKPGASVKVSCKASGYTFTDYSMHWVRQAPGQGLKWMGWINTETGEPTYADDFKGRFVFSLDTSVSTAYLQISSLKAEDTAVYYCARIPLYYYGSRYWYFDVWGQGTTVTVSS
VL: EIVMTQSPATLSVSPGERATLSCRASENIYRNLAWYQQKPGQSPRLLIYAATNLADGIPARFSGSGSGTEYTLTISSLQSEDFAVYYCQHFWGTPWTFGQGTKVEIK
modifications: synthetic humanized antibody heavy chain variable region sequence; synthetic humanized antibody light chain variable region sequence
- hEphB3-SEAP-: absorbance at 450 nm, percentage with respect to hEphA4-SEAP-His as 100% (human EphB3): 5.8%
- hEphB6-SEAP-: absorbance at 450 nm, percentage with respect to hEphA4-SEAP-His as 100% (human EphB6): 5.6%
